Numbering of substitutions follows the chain as printed. Names may count otherwise.
B1: (4) Y10A: OSM-GST fusion, alanine for Tyr 10 (protein)
chain: AAIGSCSKEARVLLGQLQKQTDLMQDTSRLLDPYIRIQGLDVPKLREHCRERPGAFPSEETLRGLGRRGFLQTLNATLGCVLHRLADLEQRLPKAQDLERSGLNIEDLEKLQMARPNILGLRNNIYCMAQLLDNSDTAEPTKAGRGASQPPTPTPASDAFQRKLEGCRFLHGYHRFMHSVGRVFSKWGESPNRSRR
modifications: left off: a dimerising Fc or GST; large carriers; small tags and cut ends
B2: (18) N117A: OSM-GST fusion, alanine for Asn 117 (protein)
chain: B1 chain with A10Y, N117A
modifications: left off: a dimerising Fc or GST; large carriers; small tags and cut ends
B3: (17) P116A: OSM-GST fusion, alanine for Pro 116 (protein)
chain: B1 chain with A10Y, P116A
modifications: left off: a dimerising Fc or GST; large carriers; small tags and cut ends
B4: (16) M113A: OSM-GST fusion, alanine for Met 113 (protein)
chain: B1 chain with A10Y, M113A
modifications: left off: a dimerising Fc or GST; large carriers; small tags and cut ends
B5: (21) R122A: OSM-GST fusion, alanine for Arg 122 (protein)
chain: B1 chain with A10Y, R122A
modifications: left off: a dimerising Fc or GST; large carriers; small tags and cut ends
B6: (14) T21A: OSM-GST fusion, alanine for Thr 21 (protein)
chain: B1 chain with A10Y, T21A
modifications: left off: a dimerising Fc or GST; large carriers; small tags and cut ends
B7: (25) Y130A: OSM-GST fusion, alanine for Gln 130 (protein)
chain: B1 chain with A10Y, Q130A
modifications: left off: a dimerising Fc or GST; large carriers; small tags and cut ends
B8: (19) L119A: OSM-GST fusion, alanine for Leu 119 (protein)
chain: B1 chain with A10Y, L119A
modifications: left off: a dimerising Fc or GST; large carriers; small tags and cut ends
B9: (15) D22: OSM-GST fusion, alanine for Asp 22 (protein)
chain: B1 chain with A10Y, D22A
modifications: left off: a dimerising Fc or GST; large carriers; small tags and cut ends
B10: (8) G15A: OSM-GST fusion, alanine for Gly 15 (protein)
chain: B1 chain with A10Y, G15A
modifications: left off: a dimerising Fc or GST; large carriers; small tags and cut ends
B11: (11) Q18A: OSM-GST fusion, alanine for Gln 18 (protein)
chain: B1 chain with A10Y, Q18A
modifications: left off: a dimerising Fc or GST; large carriers; small tags and cut ends
B12: (24) Y126A: OSM-GST fusion, alanine for Tyr 126 (protein)
chain: B1 chain with A10Y, Y126A
modifications: left off: a dimerising Fc or GST; large carriers; small tags and cut ends
B13: (5) R11A: OSM-GST fusion, alanine for Arg 11 (protein)
chain: B1 chain with A10Y, R11A
modifications: left off: a dimerising Fc or GST; large carriers; small tags and cut ends
B14: (10) L17A: OSM-GST fusion, alanine for Leu 17 (protein)
chain: B1 chain with A10Y, L17A
modifications: left off: a dimerising Fc or GST; large carriers; small tags and cut ends
B15: (7) L14A: OSM-GST fusion, alanine for Leu 14 (protein)
chain: B1 chain with A10Y, L14A
modifications: left off: a dimerising Fc or GST; large carriers; small tags and cut ends
B16: (12) K19A: OSM-GST fusion, alanine for Lys 19 (protein)
chain: B1 chain with A10Y, K19A
modifications: left off: a dimerising Fc or GST; large carriers; small tags and cut ends

Test system: HepG2 B6 cells (STAT-sPAP reporter)
Experiment: OSM-GST mutant driven sPAP production in HepG2 B6 assay
Type: cell-based, human
Conditions: for 'Potency': relative to wild type, from Mean %
Procedure: HepG2 B6 cells were plated into 96 well plates to a final concentration of 3×10^4 cells per well in 100 μl of media (DMEM (Sigma), 10% HI FCS, 1% non-essential amino acids, 2 mM Glutamine, 500 μg ml^−1 G418, (all from Life Technologies)). Cells were allowed to equilibrate for 48 hours. Putative anti-OSM solid compounds were made up to a stock dilution of 20 mM in DMSO and serially diluted 1:3 in DMSO. This was then further diluted in HepG26B assay media, this is as above media but with 1% heat inactivated FCS, low alkaline phosphatase activity (Life Technologies) substituted for 10% HI FCS. Compounds were diluted 1:3 from a top concentration of […] to a final concentration of 0.09 μM in a final concentration of 1% DMSO. (That is 200, 66.67, 22.22, 7.41, 2.47, 0.82, 0.27, 0.09 and 0 μM). The old media was removed from the wells and replaced with diluted compound also containing 2 ng ml^−1 OSM (R&D Systems), cells were incubated for a further 20 hours. Each dilution was performed in triplicate. 20 μl of media was removed from each well and assayed for sPAP activity using pNPP (p-Nitrophenyl phosphate; Sigma), as a substrate. Endogenous alkaline phosphatase is blocked with L-homoarginine. Optical density of substrate is read at 405-650 nm. Concentration of compound is plotted against OD as a measure of sPAP produced and can be analysed to determine IC50 values.
The assay described in Example 7b above was employed. OSM-GST mutants were diluted to a concentration of 100 ng ml^−using the known concentration of intact OSM mutants generated in Example 9b. A wild type OSM-GST was included for control purposes. Dilutions were made in HepG2 B6 media with 1% heat inactivated FCS, low alkaline phosphatase activity. Serial 1:3 dilutions were then made. (100; 33.33; 11.11; 3.7; 1.23; 0.4 ng ml^−1). 3×10^4 HepG2 B6 were dispensed into individual well of a 96 well plate in 100 μl of media. Cells were allowed to equilibrate for 48 hours. Media was then removed and replaced with 100 μl of diluted OSM-GST mutant. Cells were incubated for a further 20 hours. Each dilution was performed in triplicate. 20 μl of media was removed and assayed for sPAP using pNPP as a substrate. Endogenous ALP was blocked with L-homoarginine. O.D. was read at 405-650 nm. The experiment was repeated twice.

Row | Molecule | Expt 1 EC50 [mg/L] | Expt 2 EC50 [mg/L] | 'Potency' | Expt 3 EC50 [mg/L]
1 | wild type: wild type human OSM-GST fusion protein [reference compound] | 0.024 | 0.032 | – | –
2 | B1 | 0.0324 | 0.082 | LESS (>120% Less potent than wild type) | –
3 | B2 | 0.058 | 0.0425 | LESS (>120% Less potent than wild type) | –
4 | B3 | 0.025 | 0.015 | MORE (<80% More potent) | –
5 | B4 | 0.0256 | 0.025 | EQUAL (80-120% Equal potency) | –
6 | B5 | 0.0324 | 0.0138 | EQUAL (80-120% Equal potency) | 0.0473
7 | B6 | 0.017 | 0.0105 | MORE (<80% More potent) | –
8 | B7 | 0.0125 | 0.0082 | MORE (<80% More potent) | –
9 | B8 | 0.0278 | 0.023 | EQUAL (80-120% Equal potency) | –
10 | B9 | 0.0367 | 0.016 | EQUAL (80-120% Equal potency) | –
11 | B10 | 0.021 | 0.0178 | MORE (<80% More potent) | –
12 | B11 | 0.0202 | 0.0217 | MORE (<80% More potent) | –
13 | B12 | 0.093 | 0.0103 | LESS (>120% Less potent than wild type) | 0.0408
14 | B13 | 0.0286 | 0.0277 | EQUAL (80-120% Equal potency) | –
15 | B14 | 0.0727 | 0.056 | LESS (>120% Less potent than wild type) | –
16 | B15 | 0.0194 | 0.0249 | MORE (<80% More potent) | –
17 | B16 | 0.0236 | 0.0119 | MORE (<80% More potent) | –
